Measurements: IntAct's records for PubMed 31515488

B1: Zinc finger protein 774 (Homo sapiens), Q6NX45 (parent)
chain: MWLGTSGKSGLPGHCLENPLQECHPAQLEEWALKGISRPSVISQPEQKEEPWVLPLQNFEARKIPRESHTDCEHQVAKLNQDNSETAEQCGTSSERTNKDLSHTLSWGGNWEQGLELEGQHGTLPGEGQLESFSQERDLNKLLDGYVGEKPMCAECGKSFNQSSYLIRHLRTHTGERPYTCIECGKGFKQSSDLVTHRRTHTGEKPYQCKGCEKKFSDSSTLIKHQRTHTGERPYECPECGKTFGRKPHLIMHQRTHTGEKPYACLECHKSFSRSSNFITHQRTHTGVKPYRCNDCGESFSQSSDLIKHQRTHTGERPFKCPECGKGFRDSSHFVAHMSTHSGERPFSCPDCHKSFSQSSHLVTHQRTHTGERPFKCENCGKGFADSSALIKHQRIHTGERPYKCGECGKSFNQSSHFITHQRIHLGDRPYRCPECGKTFNQRSHFLTHQRTHTGEKPFHCSKCNKSFRQKAHLLCHQNTHLI
B2: Trichoplein keratin filament-binding protein (Homo sapiens), Q9BT92 (parent)
chain: MALPTLPSYWCSQQRLNQQLARQREQEARLRQQWEQNSRYFRMSDICSSKQAEWSSKTSYQRSMHAYQREKMKEEKRRSLEARREKLRQLMQEEQDLLARELEELRLSMNLQERRIREQHGKLKSAKEEQRKLIAEQLLYEHWKKNNPKLREMELDLHQKHVVNSWEMQKEEKKQQEATAEQENKRYENEYERARREALERMKAEEERRQLEDKLQAEALLQQMEELKLKEVEATKLKKEQENLLKQRWELERLEEERKQMEAFRQKAELGRFLRHQYNAQLSRRTQQIQEELEADRRILQALLEKEDESQRLHLARREQVMADVAWMKQAIEEQLQLERAREAELQMLLREEAKEMWEKREAEWARERSARDRLMSEVLTGRQQQIQEKIEQNRRAQEESLKHREQLIRNLEEVRELARREKEESEKLKSARKQELEAQVAERRLQAWEADQQEEEEEEEARRVEQLSDALLQQEAETMAEQGYRPKPYGHPKIAWN
B3: Rho guanine nucleotide exchange factor 39 (Homo sapiens), Q8N4T4 (parent)
chain: MELSCPGSRCPVQEQRARWERKRACTARELLETERRYQEQLGLVATYFLGILKAKGTLRPPERQALFGSWELIYGASQELLPYLEGGCWGQGLEGFCRHLELYNQFAANSERSQTTLQEQLKKNKGFRRFVRLQEGRPEFGGLQLQDLLPLPLQRLQQYENLVVALAENTGPNSPDHQQLTRAARLISETAQRVHTIGQKQKNDQHLRRVQALLSGRQAKGLTSGRWFLRQGWLLVVPPHGEPRPRMFFLFTDVLLMAKPRPPLHLLRSGTFACKALYPMAQCHLSRVFGHSGGPCGGLLSLSFPHEKLLLMSTDQEELSRWYHSLTWAISSQKN
partner: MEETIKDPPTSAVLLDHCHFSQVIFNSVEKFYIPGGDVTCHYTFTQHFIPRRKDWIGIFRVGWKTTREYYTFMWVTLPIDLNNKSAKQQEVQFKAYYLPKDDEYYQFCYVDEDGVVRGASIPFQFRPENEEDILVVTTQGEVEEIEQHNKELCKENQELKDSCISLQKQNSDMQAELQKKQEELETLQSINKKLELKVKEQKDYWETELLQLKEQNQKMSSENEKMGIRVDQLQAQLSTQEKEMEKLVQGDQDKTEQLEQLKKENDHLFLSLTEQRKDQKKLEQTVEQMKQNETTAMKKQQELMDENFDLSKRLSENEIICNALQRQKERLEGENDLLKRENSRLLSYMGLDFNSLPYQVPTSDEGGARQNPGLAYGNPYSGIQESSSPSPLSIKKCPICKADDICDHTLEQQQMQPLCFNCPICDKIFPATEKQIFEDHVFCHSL
B4: Zinc finger protein 544 (Homo sapiens), Q6NX49 (parent)
chain: MEARSMLVPPQASVCFEDVAMAFTQEEWEQLDLAQRTLYREVTLETWEHIVSLGLFLSKSDVISQLEQEEDLCRAEQEAPRDWKATLEENRLNSEKDRAREELSHHVEVYRSGPEEPPSLVLGKVQDQSNQLREHQENSLRFMVLTSERLFAQREHCELELGGGYSLPSTLSLLPTTLPTSTGFPKPNSQVKELKQNSAFINHEKNGADGKHCESHQCARAFCQSIYLSKLGNVETGKKNPYEYIVSGDSLNYGSSLCFHGRTFSVKKSDDCKDYGNLFSHSVSLNEQKPVHFGKSQYECDECRETCSESLCLVQTERSGPGETPFRCEERCAAFPMASSFSDCNIIQTTEKPSVCNQCGKSFSCCKLIHQRTHTGEKPFECTQCGKSFSQSYDLVIHQRTHTGEKPYECDLCGKSFTQRSKLITHQRIHTGEKPYQCIECRKSFRWNSNLIVHQRIHTGEKPYECTHCGKSFSQSYELVTHKRTHTGEKPFKCTQCGKSFSQKYDLVVHQRTHTGEKPYECNLCGKSFSQSSKLITHQRIHTGEKPYQCIECGKSFRWNSNLVIHQRIHTGEKPYDCTHCGKSFSQSYQLVAHKRTHTGEKPYECNECGKAFNRSTQLIRHLQIHTGEKPYKCNQCNKAFARSSYLVMHQRTHTGEKPFECSQCGKAFSGSSNLLSHHRIHSGEKPYECSDCGKSFRQQSQLVVHRRTHTGEKP
partner: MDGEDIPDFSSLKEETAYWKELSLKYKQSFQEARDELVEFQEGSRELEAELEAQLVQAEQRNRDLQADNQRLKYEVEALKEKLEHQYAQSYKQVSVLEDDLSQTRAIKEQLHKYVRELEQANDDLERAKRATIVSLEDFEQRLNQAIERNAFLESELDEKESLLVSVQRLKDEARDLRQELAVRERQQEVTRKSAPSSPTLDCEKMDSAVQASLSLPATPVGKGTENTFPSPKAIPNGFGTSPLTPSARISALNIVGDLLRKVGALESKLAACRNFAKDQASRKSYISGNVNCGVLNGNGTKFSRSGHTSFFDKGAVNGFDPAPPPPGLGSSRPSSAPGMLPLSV

Variants of: B1
Conditions: with trim1_human MID2, Q9UJV3
Sequence of trim1_human MID2, Q9UJV3 (Q9UJV3 whole entry): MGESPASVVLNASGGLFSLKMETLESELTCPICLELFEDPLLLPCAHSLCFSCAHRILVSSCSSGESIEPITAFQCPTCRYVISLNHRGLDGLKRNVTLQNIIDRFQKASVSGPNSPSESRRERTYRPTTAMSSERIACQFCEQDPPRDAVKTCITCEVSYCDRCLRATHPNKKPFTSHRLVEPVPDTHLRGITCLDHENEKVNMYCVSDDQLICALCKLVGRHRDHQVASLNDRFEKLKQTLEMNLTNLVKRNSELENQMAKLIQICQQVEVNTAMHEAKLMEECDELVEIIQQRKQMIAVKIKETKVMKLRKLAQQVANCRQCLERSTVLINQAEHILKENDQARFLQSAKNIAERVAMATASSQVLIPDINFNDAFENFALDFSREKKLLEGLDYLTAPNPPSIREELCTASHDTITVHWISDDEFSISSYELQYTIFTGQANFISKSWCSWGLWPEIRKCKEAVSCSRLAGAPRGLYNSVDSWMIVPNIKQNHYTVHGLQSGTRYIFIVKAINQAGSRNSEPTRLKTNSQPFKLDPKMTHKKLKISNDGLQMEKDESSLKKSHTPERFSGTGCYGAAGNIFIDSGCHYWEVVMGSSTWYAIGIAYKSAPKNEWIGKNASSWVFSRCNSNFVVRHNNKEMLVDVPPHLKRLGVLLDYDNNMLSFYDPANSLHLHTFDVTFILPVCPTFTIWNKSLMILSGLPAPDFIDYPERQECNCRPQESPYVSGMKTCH

| effect of a mutation on the interaction | Variant |
| --- | --- |
| with no effect | P65L |

Variants of: B1
Conditions: with ldoc1_human LDOC1, O95751
Sequence of ldoc1_human LDOC1, O95751 (O95751 whole entry): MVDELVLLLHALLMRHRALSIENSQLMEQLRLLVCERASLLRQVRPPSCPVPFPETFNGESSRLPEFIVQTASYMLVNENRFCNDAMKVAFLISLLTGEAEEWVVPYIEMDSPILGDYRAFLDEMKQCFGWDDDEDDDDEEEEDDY

| effect of a mutation on the interaction | Variant |
| --- | --- |
| with no effect | E183A |
| disrupting interaction strength | R469C |
| with no effect | V147I |

Variants of: B2
Conditions: with KRT15, P19012
Sequence of KRT15, P19012 (P19012 whole entry): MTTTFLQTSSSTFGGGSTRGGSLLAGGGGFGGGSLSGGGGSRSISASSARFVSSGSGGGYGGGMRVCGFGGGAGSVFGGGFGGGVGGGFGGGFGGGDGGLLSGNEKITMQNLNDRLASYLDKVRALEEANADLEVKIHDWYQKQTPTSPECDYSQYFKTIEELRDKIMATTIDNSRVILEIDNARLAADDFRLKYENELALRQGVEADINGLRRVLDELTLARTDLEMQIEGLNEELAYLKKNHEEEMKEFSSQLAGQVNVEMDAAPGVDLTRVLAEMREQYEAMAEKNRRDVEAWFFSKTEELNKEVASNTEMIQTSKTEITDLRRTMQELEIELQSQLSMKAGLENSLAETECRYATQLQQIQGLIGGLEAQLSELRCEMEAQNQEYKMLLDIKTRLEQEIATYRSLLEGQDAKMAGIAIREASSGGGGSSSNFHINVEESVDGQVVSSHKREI

| effect of a mutation on the interaction | Variant |
| --- | --- |
| with no effect | R62Q |
| with no effect | K127R |

Variants of: B2
Conditions: with cdr2_human CDR2, Q01850
Sequence of cdr2_human CDR2, Q01850 (Q01850 whole entry): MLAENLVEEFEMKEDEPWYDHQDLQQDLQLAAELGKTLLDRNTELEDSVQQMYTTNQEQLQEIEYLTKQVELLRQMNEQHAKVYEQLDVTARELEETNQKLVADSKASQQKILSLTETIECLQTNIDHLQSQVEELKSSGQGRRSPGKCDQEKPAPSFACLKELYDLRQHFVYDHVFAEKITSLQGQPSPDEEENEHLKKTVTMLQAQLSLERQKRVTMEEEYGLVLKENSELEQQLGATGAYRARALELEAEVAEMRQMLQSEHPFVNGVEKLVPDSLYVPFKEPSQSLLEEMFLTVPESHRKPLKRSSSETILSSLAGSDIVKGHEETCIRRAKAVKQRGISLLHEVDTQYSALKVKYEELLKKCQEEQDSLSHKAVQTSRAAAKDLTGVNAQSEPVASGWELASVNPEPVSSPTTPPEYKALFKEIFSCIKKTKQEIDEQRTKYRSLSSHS

| effect of a mutation on the interaction | Variant |
| --- | --- |
| with no effect | K127R |

Variants of: B2
Conditions: with ndk7_human NME7, Q9Y5B8
Sequence of ndk7_human NME7, Q9Y5B8 (Q9Y5B8 whole entry): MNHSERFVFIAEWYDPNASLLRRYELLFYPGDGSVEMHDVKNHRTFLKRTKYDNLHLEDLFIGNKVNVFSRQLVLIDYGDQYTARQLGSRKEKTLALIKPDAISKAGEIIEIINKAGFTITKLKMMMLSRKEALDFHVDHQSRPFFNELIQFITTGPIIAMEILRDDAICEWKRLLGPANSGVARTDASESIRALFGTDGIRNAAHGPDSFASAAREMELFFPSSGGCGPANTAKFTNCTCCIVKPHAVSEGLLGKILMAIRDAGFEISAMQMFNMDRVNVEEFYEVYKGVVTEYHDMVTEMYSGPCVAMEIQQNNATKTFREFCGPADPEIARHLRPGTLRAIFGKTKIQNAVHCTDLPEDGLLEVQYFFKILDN

| effect of a mutation on the interaction | Variant |
| --- | --- |
| with no effect | K127R |
| with no effect | E417K |

Variants of: B3
Conditions: with caco2_human CALCOCO2, Q13137

| effect of a mutation on the interaction | Variant |
| --- | --- |
| with no effect | R230C |
| with no effect | D204N |

Variants of: B4
Conditions: with ndel1_human NDEL1, Q9GZM8

| effect of a mutation on the interaction | Variant |
| --- | --- |
| with no effect | K406M |
